The data set in a line: total protein half-life in vivo (active degradation + dilution); higher = more stable protein.
[1] abbreviates: E. coli NCM3722 delta-clpP delta-lon delta-hslV, growth: N-lim chemostat, doubling time 6 h.
[2] abbreviates: E. coli NCM3722 delta-clpP, growth: N-lim chemostat, doubling time 6 h.
The mark [3] stands for this setting: E. coli NCM3722 delta-lon, growth: N-lim chemostat, doubling time 6 h.
[4] abbreviates: E. coli NCM3722 delta-smpB, growth: N-lim chemostat, doubling time 6 h.
The mark [5] stands for this setting: wild type E. coli NCM3722, growth: C-lim chemostat, doubling time 3 h.
Where [6] appears, read: wild type E. coli NCM3722, growth: C-lim chemostat, doubling time 6 h.
The mark [7] stands for this setting: wild type E. coli NCM3722, growth: C-lim chemostat, doubling time 12 h.
The mark [8] stands for this setting: wild type E. coli NCM3722, growth: N-lim chemostat, doubling time 6 h.
[9] abbreviates: wild type E. coli NCM3722, growth: N-lim chemostat, doubling time 12 h.
The mark [10] stands for this setting: wild type E. coli NCM3722, growth: P-lim chemostat, doubling time 6 h.
Where [11] appears, read: wild type E. coli NCM3722, growth: P-lim chemostat, doubling time 12 h.
Setting [12] is: E. coli NCM3722 delta-hslV, growth: N-lim chemostat, doubling time 6 h.

± gives the standard deviation of the averaged measurements.

With “MHSTEVQAKPLFSWKALGWALLYFWFFSTLLQAIIYISGYSGTNGIRDSLLFSSLWLIPVFLFPKRIKIIAAVIGVVLWAASLAALCYYVIYGQEFSQSVLFVMFETNTNEASEYLSQYFSLKIVLIALAYTAVAVLLWTRLRPVYIPKPWRYVVSFALLYGLILHPIAMNTFIKNKPFEKTLDNLASRMEPAAPWQFLTGYYQYRQQLNSLTKLLNENNALPPLANFKDESGNEPRTLVLVIGESTQRGRMSLYGYPRETTPELDALHKTDPNLTVFNNVVTSRPYTIEILQQALTFANEKNPDLYLTQPSLMNMMKQAGYKTFWITNQQTMTARNTMLTVFSRQTDKQYYMNQQRTQSAREYDTNVLKPFQEVLNDPAPKKLIIVHLLGTHIKYKYRYPENQGKFDGNTDHVPPGLNAEELESYNDYDNANLYNDHVVASLIKDFKAANPNGFLVYFSDHGEEVYDTPPHKTQGRNEDNPTRHMYTIPFLLWTSEKWQATHPRDFSQDVDRKYSLAELIHTWSDLAGLSYDGYDPTRSVVNPQFKETTRWIGNPYKKNALIDYDTLPYGDQVGNQ [P0CB39]”, the “total protein half-life in vivo” value was 6.57 ± 0.15 h under setting [1]; 7 ± 0.21 h under setting [2]; 6.52 ± 1.3 h under setting [3]; 6.49 ± 0.29 h under setting [4]; 3.504 ± 0.028 h under setting [5]; 6.41 ± 0.11 h under setting [6]. The “total protein half-life in vivo” value under setting [7] amounted to 13 ± 0.88 h; the “total protein half-life in vivo” value under setting [8] is 6.03 ± 0.069 h; the “total protein half-life in vivo” value under setting [9] was 13 ± 0.74 h; the “total protein half-life in vivo” value under setting [10] was 6.4 ± 0.18 h; the “total protein half-life in vivo” value under setting [11] stood at 13.1 ± 0.49 h.
As to “MFDNLTDRLSRTLRNISGRGRLTEDNVKDTLREVRMALLEADVALPVVREFINRVKEKAVGHEVNKSLTPGQEFVKIVRNELVAAMGEENQTLNLAAQPPAVVLMAGLQGAGKTTSVGKLGKFLREKHKKKVLVVSADVYRPAAIKQLETLAEQVGVDFFPSDVGQKPVDIVNAALKEAKLKFYDVLLVDTAGRLHVDEAMMDEIKQVHASINPVETLFVVDAMTGQDAANTAKAFNEALPLTGVVLTKVDGDARGGAALSIRHITGKPIKFLGVGEKTEALEPFHPDRIASRILGMGDVLSLIEDIESKVDRAQAEKLASKLKKGDGFDLNDFLEQLRQMKNMGGMASLMGKLPGMGQIPDNVKSQMDDKVLVRMEAIINSMTMKERAKPEIIKGSRKRRIAAGCGMQVQDVNRLLKQFDDMQRMMKKMKKGGMAKMMRSMKGMMPPGFPGR [P0AGD7]”, the “total protein half-life in vivo” value was 5.51 ± 0.064 h under setting [1]; 5.31 ± 0.54 h under setting [2]; 4.4 ± 0.073 h under setting [12]; 5.49 ± 0.42 h under setting [3]; 4.58 ± 0.087 h under setting [4]; 2.85 ± 0.033 h under setting [5]. For the same sequence, the “total protein half-life in vivo” value was 4.898 ± 0.04 h under setting [6]; 8.739 ± 0.073 h under setting [7]; 4.28 ± 0.099 h under setting [8]; 7.9 ± 0.14 h under setting [9]; 4.6 ± 0.13 h under setting [10]; 9.883 ± 0.071 h under setting [11].
Regarding “MLAFIRFLFAGLLLVISHAFAATVQDEHGTFTLEKTPQRIVVLELSFADALAAVDVIPIGIADDNDAKRILPEVRAHLKPWQSVGTRAQPSLEAIAALKPDLIIADSSRHAGVYIALQQIAPVLLLKSRNETYAENLQSAAIIGEMVGKKREMQARLEQHKERMAQWASQLPKGTRVAFGTSREQQFNLHTQETWTGSVLASLGLNVPAAMAGASMPSIGLEQLLAVNPAWLLVAHYREESIVKRWQQDPLWQMLTAAQKQQVASVDSNTWARMRGIFAAERIAADTVKIFHHQPLTVVK”, the “total protein half-life in vivo” value is, setting by setting: under setting [6], 5.67 h; under setting [7], 7.06 h.
For “MGMIGYFAEIDSEKINQLLESTEKPLMDNIHDTLSGLRRLDIDKRWDFLHFGLTGTSAFDPAKNDPLSRAVLGEHSLEDGIDGFLGLTWNQELAATIDRLESLDRNELRKQFSIKRLNEMEIYPGVTFSEELEGQLFASIMLDMEKLISAYRRMLRQGNHALTVIVG”, the “total protein half-life in vivo” value was found to be 2.19 h under setting [12]; 1.91 ± 0.022 h under setting [4]; 1.89 h under setting [5]; 4.04 h under setting [6]; 4.57 h under setting [7]; 3.44 ± 0.17 h under setting [10]. The “total protein half-life in vivo” value under setting [11] was 6.19 ± 0.12 h.
Regarding “MAKVLVLYYSMYGHIETMARAVAEGASKVDGAEVVVKRVPETMPPQLFEKAGGKTQTAPVATPQELADYDAIIFGTPTRFGNMSGQMRTFLDQTGGLWASGALYGKLASVFSSTGTGGGQEQTITSTWTTLAHHGMVIVPIGYAAQELFDVSQVRGGTPYGATTIAGGDGSRQPSQEELSIARYQGEYVAGLAVKLNG [P0A8G6]”, the “total protein half-life in vivo” value by setting is: under setting [1], 5.48 ± 0.11 h; under setting [2], 5.53 ± 0.88 h; under setting [12], 5.48 ± 0.15 h; under setting [3], 5.7 ± 0.49 h; under setting [4], 4.89 ± 0.052 h; under setting [5], 3.227 ± 0.018 h. Further, the “total protein half-life in vivo” value is 5.98 ± 0.084 h under setting [6]; 11.1 ± 1.1 h under setting [7]; 5.31 ± 0.38 h under setting [8]; 9.99 ± 1.1 h under setting [9]; 5.69 ± 0.29 h under setting [10]; 11.7 ± 0.32 h under setting [11].
As for “MYKTIIMPVDVFEMELSDKAVRHAEFLAQDDGVIHLLHVLPGSASLSLHRFAADVRRFEEHLQHEAQERLQTMVSHFTIDPSRIKQHVRFGSVRDEVNELAEELGADVVVIGSRNPSISTHLLGSNASSVIRHANLPVLVVR”, the “total protein half-life in vivo” value under setting [12] was found to be 4.48 h; the “total protein half-life in vivo” value under setting [3] came to 4.71 ± 0.33 h; the “total protein half-life in vivo” value under setting [4] came to 4.18 ± 0.48 h; the “total protein half-life in vivo” value under setting [5] came to 3.06 ± 0.038 h; the “total protein half-life in vivo” value under setting [6] was 6.27 h; the “total protein half-life in vivo” value under setting [7] worked out at 12 ± 1.8 h. Besides, the “total protein half-life in vivo” value by setting is: under setting [8], 3.99 ± 0.43 h; under setting [9], 6.48 ± 0.34 h; under setting [10], 6.06 ± 0.33 h; under setting [11], 10.7 h.
Consider “MTDMNILDLFLKASLLVKLIMLILIGFSIASWAIIIQRTRILNAAAREAEAFEDKFWSGIELSRLYQESQGKRDNLTGSEQIFYSGFKEFVRLHRANSHAPEAVVEGASRAMRISMNRELENLETHIPFLGTVGSISPYIGLFGTVWGIMHAFIALGAVKQATLQMVAPGIAEALIATAIGLFAAIPAVMAYNRLNQRVNKLELNYDNFMEEFTAILHRQAFTVSESNKG [P0ABU9]”, for which the “total protein half-life in vivo” value under setting [1] was 5.8 ± 0.98 h; the “total protein half-life in vivo” value under setting [2] came out at 6.17 ± 0.19 h; the “total protein half-life in vivo” value under setting [12] was 7.1 ± 0.95 h; the “total protein half-life in vivo” value under setting [3] came to 6.83 ± 1.3 h; the “total protein half-life in vivo” value under setting [4] came out at 6.07 ± 0.051 h; the “total protein half-life in vivo” value under setting [5] was determined as 3.13 ± 0.22 h. Moreover, the “total protein half-life in vivo” value under setting [6] was found to be 6.078 ± 0.021 h; the “total protein half-life in vivo” value under setting [7] came to 11.9 ± 1.4 h; the “total protein half-life in vivo” value under setting [8] was 5.74 ± 0.16 h; the “total protein half-life in vivo” value under setting [9] turned out to be 11.6 ± 1.6 h; the “total protein half-life in vivo” value under setting [10] came out at 5.93 ± 0.14 h; the “total protein half-life in vivo” value under setting [11] amounted to 12.7 ± 0.76 h.
In the case of “MLPKAARIPHAMTLHGDTRIDNYYWLRDDTRSQPEVLDYLQQENSYGHRVMASQQALQDRILKEIIDRIPQREVSAPYIKNGYRYRHIYEPGCEYAIYQRQSAFSEEWDEWETLLDANKRAAHSEFYSMGGMAITPDNTIMALAEDFLSRRQYGIRFRNLETGNWYPELLDNVEPSFVWANDSWIFYYVRKHPVTLLPYQVWRHAIGTPASQDKLIYEEKDDTYYVSLHKTTSKHYVVIHLASATTSEVRLLDAEMADAEPFVFLPRRKDHEYSLDHYQHRFYLRSNRHGKNFGLYRTRMRDEQQWEELIPPRENIMLEGFTLFTDWLVVEERQRGLTSLRQINRKTREVIGIAFDDPAYVTWIAYNPEPETARLRYGYSSMTTPDTLFELDMDTGERRVLKQTEVPGFYAANYRSEHLWIVARDGVEVPVSLVYHRKHFRKGHNPLLVYGYGSYGASIDADFSFSRLSLLDRGFVYAIVHVRGGGELGQQWYEDGKFLKKKNTFNDYLDACDALLKLGYGSPSLCYAMGGSAGGMLMGVAINQRPELFHGVIAQVPFVDVVTTMLDESIPLTTGEFEEWGNPQDPQYYEYMKSYSPYDNVTAQAYPHLLVTTGLHDSQVQYWEPAKWVAKLRELKTDDHLLLLCTDMDSGHGGKSGRFKSYEGVAMEYAFLVALAQGTLPATPAD”, the “total protein half-life in vivo” value was 3.82 ± 0.14 h under setting [2]; 4.03 ± 0.38 h under setting [12]; 4.8 ± 0.56 h under setting [3]; 3.5 ± 0.68 h under setting [4]; 3.24 ± 0.09 h under setting [5]; 5.11 ± 0.12 h under setting [6]. Further, the “total protein half-life in vivo” value runs as follows: under setting [7], 10.8 ± 3.6 h; under setting [8], 4.31 ± 0.24 h; under setting [9], 8.85 h; under setting [10], 5.9 ± 1.3 h; under setting [11], 10.3 ± 0.86 h.
With “MSDDVALPLEFTDAAANKVKSLIADEDNPNLKLRVYITGGGCSGFQYGFTFDDQVNEGDMTIEKQGVGLVVDPMSLQYLVGGSVDYTEGLEGSRFIVTNPNAKSTCGCGSSFSI [P0ACC3]”, the “total protein half-life in vivo” value worked out at 5.22 ± 1.4 h under setting [1]; 2.03 ± 0.4 h under setting [12]; 3.62 ± 0.25 h under setting [3]; 1.74 ± 0.059 h under setting [4]; 1.62 ± 0.23 h under setting [5]; 2.89 ± 0.6 h under setting [6]. Besides, the “total protein half-life in vivo” value by setting is: under setting [7], 3.62 ± 0.69 h; under setting [8], 1.71 ± 0.19 h; under setting [9], 2.43 ± 0.26 h; under setting [10], 2.4 ± 0.14 h; under setting [11], 4.84 ± 0.42 h.
As for “MTVSSHRLELLSPARDAAIAREAILHGADAVYIGGPGFGARHNASNSLKDIAELVPFAHRYGAKIFVTLNTILHDDELEPAQRLITDLYQTGVDALIVQDMGILELDIPPIELHASTQCDIRTVEKAKFLSDVGFTQIVLARELNLDQIRAIHQATDATIEFFIHGALCVAYSGQCYISHAQTGRSANRGDCSQACRLPYTLKDDQGRVVSYEKHLLSMKDNDQTANLGALIDAGVRSFKIEGRYKDMSYVKNITAHYRQMLDAIIEERGDLARASSGRTEHFFVPSTEKTFHRGSTDYFVNARKGDIGAFDSPKFIGLPVGEVVKVAKDHLDVAVTEPLANGDGLNVLIKREVVGFRANTVEKTGENQYRVWPNEMPADLHKIRPHHPLNRNLDHNWQQALTKTSSERRVAVDIELGGWQEQLILTLTSEEGVSITHTLDGQFDEANNAEKAMNNLKDGLAKLGQTLYYARDVQINLPGALFVPNSLLNQFRREAADMLDAARLASYQRGSRKPVADPAPVYPQTHLSFLANVYNQKAREFYHRYGVQLIDAAYEAHEEKGEVPVMITKHCLRFAFNLCPKQAKGNIKSWKATPMQLVNGDEVLTLKFDCRPCEMHVIGKIKNHILKMPLPGSVVASVSPDELLKTLPKRKG”, the “total protein half-life in vivo” value is, setting by setting: under setting [1], 4.77 ± 0.49 h; under setting [2], 0.895 h; under setting [12], 1.82 ± 0.064 h; under setting [3], 2.74 ± 0.24 h; under setting [4], 1.75 ± 0.024 h; under setting [5], 1.911 ± 0.011 h. The “total protein half-life in vivo” value reads like this: under setting [6], 2.78 ± 0.12 h; under setting [7], 3.03 ± 0.49 h; under setting [8], 2.12 ± 0.058 h; under setting [9], 2.47 ± 0.12 h; under setting [10], 2.13 ± 0.32 h; under setting [11], 3.17 ± 0.38 h.

The record behind these values is the supplement of paper PMC11246515.
